{"source": "the supplement of paper PMC9170038", "data": [{"test_system": "K4 kissing-loop RNA reporter", "assay": "apparent KD of K4 kissing-loop reporter; higher = weaker reporter binding", "settings": "Eterna round: R107; input ligand: none", "protocol": "(§1)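 RNA-MaP round R107: designed RNA switches with theophylline, tryptophan, arginine or FMN aptamers are transcribed on-chip within common flanks. They are titrated with a labelled K4 kissing-loop RNA reporter in RNA-MaP buffer (100 mM Tris pH 7.5, 80 mM KCl, 4 mM MgCl2), without ligand or with the indicated ligand. Median apparent KD per design.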", "units": {"apparent KD of K4 kissing-loop reporter": "µM"}, "values": [{"sequence": "CGCAGUGAUGUUGCUAUUAUUCUUGAUUAACGAGGACCGGUACGGCCGCCACUCGAUUUCUAUCUAAUUUAGUGUUAUGUUGAUU [JR_ExcTryptoA_Sub007]", "apparent KD of K4 kissing-loop reporter": 0.397}, {"sequence": "AAGCAGUCACUCGAAACCAUCGAAGAUGGUCGAGGACCGGUACGGCCGCCACUCGGAGUGAUGUUCCGAAGACUGCAAAAUAAAA [#SwitchBubble 10]", "apparent KD of K4 kissing-loop reporter": 0.286}, {"sequence": "UGGCGGCAAGGGUUAUUGGAAAGUAUUCGACGAGGACCGGUACGGCCGCCACUCGAACACCAGUGAUGUUGGUCUGGCUUAAGCC [Exclusion Tryptophan A GF 21]", "apparent KD of K4 kissing-loop reporter": 0.285}, {"sequence": "UGAGUUAGACAAAAGUCUAGCUCUGGUGAAGGAGCGUCCGAAAGGACAGGUAGGUCGCACCACCUGAGUGAUGUUCAGAAUCCUU [KL-SSArg-A22]", "apparent KD of K4 kissing-loop reporter": 0.789}, {"sequence": "UUUGUAUCGGGAAGGAGCGUGAAUGAUAAUGAAUAUAGUGAUGUUAUAUAUAAGAACGAAUCACAGGUAGGUCGCCCGGAUGAGU [SSArgB.N]", "apparent KD of K4 kissing-loop reporter": 0.486}, {"sequence": "CGAGAGCUCUUGUUUGGAUGUGUUUUAUGGCGAGGACCGGUACGGCCGCCACUCGGGUGAUGUUAGUGAUGUUGAUGUAGUGAUG [qzxmullin]", "apparent KD of K4 kissing-loop reporter": 0.0927}, {"sequence": "UAUCCUCGCUGAAGGAGCGAGCAUGAAGCAGUGAUGUUCCGAGCGAGUGAUGUUCGCAUAGCUCAGGUAGGUCGCAGUGGGAUUU [Same State Arginie B GF 17]", "apparent KD of K4 kissing-loop reporter": 1.03}, {"sequence": "GGUGACAGCCAGGAGUGAUGUAUAGAAUAGCGAGGACCGGUACGGCCGCCACUCGUGAAGAGAAGGGAGUGAUGUUCCGUAAUGG [Kazoo C]", "apparent KD of K4 kissing-loop reporter": 0.17}, {"sequence": "UUGGAUUGAUGAGAGUUGAUUUGGUAGGAAGGAGCGGCCGAAAGGCCAGGUAGGUCGCCUAUUGACAGUGAUGUUGUUAUAUGGU [#16]", "apparent KD of K4 kissing-loop reporter": 0.237}, {"sequence": "UAUCUAUGCUCGGCCGCCACUAGGACCGGGAGGUAACUAGUGAUGUUAGUAUCUUCGGCCGCCACUAGGACCGGGAGUGUAGAUA [KL-SSTryp-B17 #DoubleAptamer]", "apparent KD of K4 kissing-loop reporter": 0.0927}, {"sequence": "CGUGCCCGGCCGGAUACCAGUGACCCGCUGGGAACCGCGGGCCCAGAGUGAUGUUCGGGACACCCUUGGCAGCCGCCUGGGCUGC [#2 Same State - Theophylline B Attempt #14 (HarryS)]", "apparent KD of K4 kissing-loop reporter": 0.757}, {"sequence": "AAACAAGAUGCAGGAUAUACGGACCCAGUGAUGUUGGGUAGAAUUGUCCCGGCAAUCCUUGUGGCAGUAGAAGGGCAAUAAAAGA [Gexeraora]", "apparent KD of K4 kissing-loop reporter": 0.169}, {"sequence": "AAACUUGCAGUGAUGUUGCAAGUAGGUGAUACCAGCAUCGAAAGAUGCCCUUGGCAGCACCAUCUUGUAACAUAGGUAUCACCAA [(H1)-(H2)-(T1)-(T2)-(H)'-(T)'_Design4]", "apparent KD of K4 kissing-loop reporter": 0.194}, {"sequence": "AAACAUCACUGGGAGUGAUGUUCUCAGUGACGAGGACCGGUACGGCCGCCACUCGCGAGAGAACUAGUCUAGUCUUGACUGCAUU [Excl Tryptophan A V14]", "apparent KD of K4 kissing-loop reporter": 0.335}, {"sequence": "UGUCGUUCUAGUGAUGUUAGGACAGUUAUGAAGGAUAUACACACUCGUAGAAGGUCAGCUGCGGAAUGGCGAUUACGGUGAUUCG [theeternabot_sameState_KL_FMN_A_39]", "apparent KD of K4 kissing-loop reporter": 0.128}, {"sequence": "GUGCGGCUAGUGAUGUUGGUUGCGUGGGAAGGAGCGCAGUAAAAUGCAGGUAGGUCGCCCGCAUCUCUGAUAAAAGAUUAAUUCA [KL-SSArg-A9]", "apparent KD of K4 kissing-loop reporter": 0.228}, {"sequence": "CACGCCUGUUGUCUGGUAGACAGAUCAGAUACCAGACAUAGUGAUGUCCCUUGGCAGCUGAACAUCCAGUGAUGUUGGAUGCGUU [Theo A SS t11]", "apparent KD of K4 kissing-loop reporter": 0.446}, {"sequence": "CCUAUCUCAUACGAUACCAGUCAAUAUAAACGAGUGAUGUUCGAAAUAAUAUGCCAUCACGACCCUUGGCAGCGUAUGGGAUAGG [Ex Theophylline B K4 6]", "apparent KD of K4 kissing-loop reporter": 0.141}, {"sequence": "GGCGGCCGCGCGUAAGCGCGGCCGGCCGAUACCAGCGCGACGGCGCGCCCUUGGCAGCGGCGCCGAGUGAUGUUCGGCCUGCCGG [#2 Same State - Theophylline A Attempt #17 (HarryS)]", "apparent KD of K4 kissing-loop reporter": 0.441}, {"sequence": "UAUUUAAAUAAAAUAAAAUAAAUUGCUGAUACCAGAGUCAAUUGACUCCCUUGGCAGCGGAUCGAGUGAUGUUCGUAAAAUUUAU [AK2.1 SS Theophylline A]", "apparent KD of K4 kissing-loop reporter": 0.0308}, {"sequence": "AAUUUAUUAACUGAUACCAGACUUUAGCGCGUUUAUAAGUCAAGUGAUGUUUGACUAAUUGUCCCUUGGCAGCAGUAUUUAUUAA [JR_SSTheophyB_Sub021]", "apparent KD of K4 kissing-loop reporter": 0.216}]}, {"test_system": "K4 kissing-loop RNA reporter", "assay": "apparent KD of K4 kissing-loop reporter; higher = weaker reporter binding", "settings": "Eterna round: R107; input ligand: theophylline 20 uM", "protocol": "as §1", "units": {"apparent KD of K4 kissing-loop reporter": "µM"}, "values": [{"sequence": "CCUAUCUCAUACGAUACCAGUGAUUAACCAGUGAUGUUGGAAUAACCAAGGAAUAUUUAUCACCCUUGGCAGCGUAUGGGAUAGG [Ex Theophylline B K4 28]", "apparent KD of K4 kissing-loop reporter": 0.115}, {"sequence": "GCGCGUCAUGUCAGCGGUGACACUGUCGAUACCAGUGCCGAAAGGCGCCCUUGGCAGCGACGUGCUGGAGUGAUGUUCCAGCGUU [#2 Exclusion - Theophylline A Attempt #30 (HarryS)]", "apparent KD of K4 kissing-loop reporter": 0.149}, {"sequence": "AAUGUACAAGUGAUGUUUGUACUUUCCGAAGGAGCGUCUAAUAAGACAGGUAGGUCGCGGAUUCUCUAAAUUAUCAGGUCAUUAA [JR_ExcArginiA_Sub018]", "apparent KD of K4 kissing-loop reporter": 0.0856}, {"sequence": "UGUACCGAGUCAGGAUAUGGCGUCGAAAGACGAAACCAGUGAUGUUGGAAAAUCUGCGAAAGCAGUCCAGAAGGGACUUGGUACU [FmnBS 24 #SwitchBubble #StaticStem #DoubleMagnetSystem]", "apparent KD of K4 kissing-loop reporter": 0.227}, {"sequence": "GCCUAGUGAUGUUGGGUAAUUUAAACCGGGCGAGGACCGGUACGGCCGCCACUCGGAAACACAACAAAAUUUAAUUUAAUUUAAA [Exclusion - Trytophan A]", "apparent KD of K4 kissing-loop reporter": 0.204}]}]}
